Laboratory results: patent US20140248295A1 (ROCKEFELLER UNIVERSITY, published 2014)
Where a chain is given by its changes, count along the chain named.

B1: Ibalizumab light chain mutant LM30E (antibody, human IgG1, kappa, V domains shown)
VH: QVQLQQSGPEVVKPGASVKMSCKASGYTFTSYVIHWVRQKPGQGLDWIGYINPYNDGTDYDEKFKGKATLTSDTSTSTAYMELSSLRSEDTAVYYCAREKDNYATGAWFAYWGQGTLVTVSS
VL: DIVMTQSPDSLAVSLGERVTMNCKSSQSLLYSTNNATYLAWYQQKPGQSPKLLIYWASTRESGVPDRFSGSGSGTDFTLTISSVQAEDVAVYYCQQYYSYRTFGGGTKLEIKR
B2: Ibalizumab light chain mutant LM60 (antibody, human IgG1, kappa, V domains shown)
VH: B1 VH
VL: B1 VL with N35Q, A36K, T37N, D66N, R67A, F68T
B3: Ibalizumab light chain mutant LM76 (antibody, human IgG1, kappa, V domains shown)
VH: B1 VH
VL: B1 VL with N35Q, A36K, T37N, S82N, S83A, V84T
B4: Ibalizumab light chain mutant LM52 (antibody, human IgG1, kappa, V domains shown)
VH: B1 VH
VL: B1 VL with N35Q, A36K, T37N, S58N, T59S, R60T
notes: also called iMab-LM52; Ibalizumab LM52
B5: Ibalizumab light chain mutant LM67 (antibody, human IgG1, kappa, V domains shown)
VH: B1 VH
VL: B1 VL with N35Q, A36K, T37N, S73N, G74A
B6: Ibalizumab light chain mutant LM65 (antibody, human IgG1, kappa, V domains shown)
VH: B1 VH
VL: B1 VL with N35Q, A36K, T37N, S71N, G72A, S73T
B7: Ibalizumab light chain mutant LM53 (antibody, human IgG1, kappa, V domains shown)
VH: B1 VH
VL: B1 VL with N35Q, A36K, T37N, T59N, R60A, E61T

Target: T1, Recombinant sCD4 comprising the full-length extracellular domain of human CD4 (human, UniProt P01730 26-396)
T1 construct: also called human sCD4 protein; CD4 protein
Test: SPR (Biacore), antibody on CM5 chip by amine coupling, sCD4 as analyte, 25 C
Method: Binding affinity analyses were performed with a T3000 instrument (GE Healthcare, Piscataway, N.J.). […] Briefly, carboxyl groups on the sensor chip surface were activated by injection of a solution containing 0.2 M EDC and 0.05 M NHS. Next, sCD4 protein in 10 mM NaOAc buffer (pH5) was flowed over the chip surface until the desired level of response units was achieved. After unreacted protein was washed out, excess active ester groups on the sensor surface were capped by the injection of 1 M ethanolamine, pH 8.0. Binding experiments were performed at 25° C. in HBS-EP buffer (GE Healthcare). Binding kinetics were measured by passing various concentrations of human sCD4 protein over the chip surface. For kinetics data analysis, the kinetic parameters ([…], association rate constant; koff, dissociation rate constant; KD, equilibrium dissociation constant) were determined by collectively fitting the overlaid sensograms using the BIAevaluation 4.1 software.
CD4 binding affinities of these mutant antibodies were examined using surface plasmon resonance.

Binder | Kd [nM]
B1 | 1.3
B2 | 0.19
B3 | 0.28
B4 | 0.35
B5 | 0.8
B6 | 1.5
B7 | 0.53
